Data reported in patent US20210032351A1 (XDCEXPLORER SHANGHAI, published 2021).
Positions count from the first letter of the chain named. Values belong to the binder of their own block, whether it stands above or below them.

What was measured:
[1] = target: T1, human wild-type EGFR protein on the cell surface (human, UniProt P00533 25-1210); assay: FACS on A431 tumor cells
T1 construct: whole, on cells; Endogenous on A431, HEB, U87MG cells and normal human primary hepatocytes; transfected on CHOk1-EGFR cells; The cell is named under assay; also called A431; HEB
Experimental: (§1) The preparation of U87MG-EGFRvIII required for FACS detection is as described in the preparation of the immunogen B in example 1. Normal human primary hepatocytes are purchased from BioreclamationIVT, and A431 tumor cells are purchased from ATCC. The recovered hepatocytes are directly used for FACS detection, and the recovered U87MG-EGFRvIII and A431 cells are subjected to an expanded culture to 90% confluence in a T-75 cell culture flask; the medium is sucked out, and the cells are washed twice with a HBSS buffer (Hanks Balanced Salt Solution) (purchased from Invitrogen), and then treated with an enzyme-free cell dissociation solution (Versene solution: purchased from Life Technology) and collected. The cells are washed twice with the HBSS buffer and are counted, and then the cells are diluted with the HBSS buffer to 2×10⁶ cells/ml, added with 1% goat serum blocking solution, with the percentage being the mass percentage, and incubated on ice for 30 minutes, and then centrifugally washed twice with the HBSS buffer. The collected cells are resuspended to 2×10⁶ cells/mL with an FACS buffer (HBSS+2% FBS, with the percentage being the volume percentage), added to a 96-well FACS reaction plate at 100 μL/well, then added with 100 μL/well of the purified EGFRvIII antibody (samples to be tested) obtained in example 12, and incubated on ice for 2 hours. The plate is centrifugally washed twice with the FACS buffer, added with 100 μL/well of a 1:1000 diluted fluorescence (Alexa 488) labeled secondary antibody (purchased from Invitrogen), and incubated on ice for 1 hour. The plate is centrifugally washed 3 times with the FACS buffer, added with 100 μL/well of a fixing solution [4% (v/v) paraformaldehyde] to resuspend the cells, and centrifugally washed twice with the FACS buffer after 10 minutes. The cells are resuspended in 100 μL of the FACS buffer, and the results are detected and analyzed by FACS (FACS Calibur, purchased from BD). Data analysis is performed by using the software (CellQuest) to obtain the mean fluorescence intensity (MFI) of the cells. Data is further analyzed by using the software (GraphPad Prism5) to perform data fitting and calculate EC50.

[2] = target: T2, human EGFRvIII-hFc protein (human, UniProt P00533 25-645); assay: ELISA, EGFRvIII-hFc coated
T2 construct: extracellular domain; also called immunogen A; hFc-tagged EGFRvIII protein; not shown: human IgG Fc fragment (hFc) of the pCpC vector
Experimental: The purified humanized anti-EGFRvIII antibody obtained in example 12 is reacted with a human EGFRvIII-hFc protein.
The purified immunogen A (EGFRvIII-hFc) obtained in example 1 (for the preparation method, see step (I) in example 1) is diluted with PBS to a final concentration of 1.0 μg/mL, and then added to a 96-well ELISA plate at 100 μl/well. The plate is sealed with a plastic film and incubated at 4° C. overnight. The next day, the plate is washed twice with a plate washing solution [PBS+0.01% (v/v) Tween20], and added with a blocking solution [PBS+0.01% (v/v) Tween20+1% (w/w) BSA] for blocking 2 hours at room temperature. […] The plate is incubated for 2 hours at 37° C., and then washed 3 times with the plate washing solution [PBS+0.01% (v/v) Tween20]. The plate is added with an HRP (horseradish peroxidase) labeled secondary antibody (purchased from Sigma), incubated at 37° C. for 2 hours, and then washed 3 times with the plate washing solution [PBS+0.01% (v/v) Tween20]. The plate is added with 100 μl of TMB substrate/well, incubated for 30 minutes at room temperature, and then added with 100 μl of stopping solution (1.0N HCl)/well. A450 nm value is read using an ELISA plate reader (SpectraMax 384plus, purchased from Molecular Device).

[3] = target: T3, human EGFRvIII protein on the cell surface (human, UniProt P00533 25-1210); assay: FACS on U87MG-EGFRvIII cells
T3 construct: whole, on cells; the cell line is named under assay; also called hEGFRvIII; U87MG-hEGFRvIII
Experimental: as §1

[4] = target: T1, human wild-type EGFR protein on the …; assay: FACS on normal human primary hepatocytes
Experimental: as §1

[5] = target: T1, human wild-type EGFR protein on the …; assay: FACS, MFI on A431 cells over MFI on normal primary hepatocytes
Experimental: as §1

[6] = target: T4, human EGFR protein (wild-type), on cells (human, UniProt P00533 25-1210); assay: FACS on U87MG and HEB cells
T4 construct: whole, on cells; transfected on CHO-K1 cells; endogenous on the human cell lines; the cell is named under assay; also called wild-type EGFR; hEGFR
Experimental: The collected cells are suspended to 2×10⁶ cells/mL with an FACS buffer (HBSS+1% BSA, with the percentage being the mass percentage), added to a 96-well FACS reaction plate at 100 μL/well, then added with 100 μL/well of the purified EGFRvIII antibody (samples to be tested) obtained in example 2, and incubated on ice for 2 hours. The plate is centrifugally washed twice with the FACS buffer, added with 100 μL/well of a fluorescence (Alexa 488) labeled secondary antibody (purchased from Invitrogen), and then incubated on ice for 1 hour. The plate is centrifugally washed 3 times with the FACS buffer, added with 100 μL/well of a fixing solution [4% (v/v) paraformaldehyde] for suspending the cells, and centrifugally washed twice with the FACS buffer after 10 minutes. The cells are suspended in 100 μL of the FACS buffer, and the results are detected and analyzed by FACS (FACS Calibur, purchased from BD). Data analysis is performed by using the software (CellQuest) to obtain the mean fluorescence intensity (MFI) of the cells. Data is further analyzed by using the software (GraphPad Prism5) to perform data fitting and calculate EC50. […] A431 cells (human epidermal cell cancer cell lines) have a large amount of wild-type EGFR protein expressed on the surface thereof. […] U87MG cells (human glioma cell lines) have a small amount of wild-type EGFR protein expressed on the surface thereof, while HEB cells (human glioma cell lines) have a high level of wild-type EGFR protein expression on the surface thereof.

[7] = target: T5, human EGFRvIII-hFc protein (human, UniProt P00533 25-645); assay: ELISA, coated EGFRvIII-hFc, antibody 1 nM
T5 construct: extracellular domain; made in HEK293 cells, purified on protein A; also called immunogen A; hFc-tagged EGFRvIII protein; not shown: human IgG Fc fragment (hFc) of the pCpC vector
Experimental: (§2) The purified immunogen A (EGFRvIII-hFc) obtained in example 1 (for the preparation method, see step (I) in example 1) is diluted with PBS to a final concentration of 1.0 μg/mL, and then added to a 96-well ELISA plate at 100 μl/well. The plate is sealed with a plastic film and incubated at 4° C. overnight. The next day, the plate is washed twice with a plate washing solution [PBS+0.01% (v/v) Tween20], and added with a blocking solution [PBS+0.01% (v/v) Tween20+1% (w/w) BSA] for blocking 2 hours at room temperature. The blocking solution is discarded, and the purified EGFRvIII antibody obtained in example 2 is added at 100 μl/well. The plate is incubated for 2 hours at 37° C., and then washed 3 times with the plate washing solution [PBS+0.01% (v/v) Tween20]. The plate is added with an HRP (horseradish peroxidase) labeled secondary antibody (purchased from Sigma), incubated at 37° C. for 2 hours, and then washed 3 times with the plate washing solution [PBS+0.01% (v/v) Tween20]. The plate is added with 100 μl of TMB substrate/well, incubated for 30 minutes at room temperature, and then added with 100 μl of stopping solution (1.0N HCl)/well. A450 nm value is read using an ELISA plate reader (SpectraMax 384plus, purchased from Molecular Device), and the results are shown in FIG. 6 and table 10.

[8] = target: T5, human EGFRvIII-hFc protein; assay: ELISA, coated EGFRvIII-hFc, antibody 10 nM
Experimental: as §2

[9] = target: T5, human EGFRvIII-hFc protein; assay: ELISA, coated EGFRvIII-hFc, antibody 0.1 nM
Experimental: as §2

[10] = target: T5, human EGFRvIII-hFc protein; assay: ELISA, coated EGFRvIII-hFc, antibody 100 nM
Experimental: as §2

[11] = target: T5, human EGFRvIII-hFc protein; assay: ELISA, coated EGFRvIII-hFc, antibody 0.01 nM
Experimental: as §2

[12] = target: T5, human EGFRvIII-hFc protein; assay: ELISA, coated EGFRvIII-hFc, antibody 0.001 nM
Experimental: as §2

[13] = target: T5, human EGFRvIII-hFc protein; assay: ELISA, coated EGFRvIII-hFc, antibody 0.0001 nM
Experimental: as §2

B1: Humanized antibody h75G7C6-9 (antibody, human IgG1, V domains shown)
VH: QVQLVQSGAEVKKPGASVKVSCKASGYTFTDYNMDWVRQAPGQGLEWIGDINPNNADTIYNQKFKGRVTLTVDTSTSTVYMELSSLRSEDTAVYYCARGDYDGYYPVYYAMDYWGQGTTVTVSS
VL: EIVLTQSPATLSLSPGERATLSCRASSSVSSSYLHWYQQKPGQAPRLLIYSTSNLAAGIPARFSGSGSGTDFTLTISSLEPEDFAVYYCQQYSGYPLTFGGGTKVEIK
notes: also called VH-g1/VL-g0
- MFI [1]: 10700 MFI
- EC50 [2]: 0.58 nM
- Maximum OD450 value [2]: 2.83 OD450
- EC50 [3]: 5.83 nM
- Maximum mean fluorescence intensity [3]: 18200 MFI
- MFI [4]: 238 MFI
- Selective window (MFI A431/Hepatocytes) [5]: 45 fold

B2: Humanized antibody h75G7C6-15 (antibody, human IgG1, V domains shown)
VH: B1 VH with R38K, T74K
VL: B1 VL with I2N, A44S, Y50F, F72Y
notes: also called VH-g2/VL-g2
- MFI [1]: 13000 MFI
- EC50 [2]: 0.29 nM
- Maximum OD450 value [2]: 3.19 OD450
- EC50 [3]: 6.45 nM
- Maximum mean fluorescence intensity [3]: 18900 MFI
- MFI [4]: 287 MFI
- Selective window (MFI A431/Hepatocytes) [5]: 45.3 fold

B3: Humanized antibody h75G7C6-13 (antibody, human IgG1, V domains shown)
VH: B1 VH with R38K, T74K
VL: B1 VL
notes: also called VH-g2/VL-g0
- MFI [1]: 11500 MFI
- EC50 [2]: 0.48 nM
- Maximum OD450 value [2]: 3.16 OD450
- EC50 [3]: 6.77 nM
- Maximum mean fluorescence intensity [3]: 18700 MFI
- MFI [4]: 256 MFI
- Selective window (MFI A431/Hepatocytes) [5]: 44.7 fold

B4: Murine anti-49G12 (antibody, V domains shown)
VH: EVQLLQSGAELVKPGASVKLSCTASGFNIKDYYMHWVKQRTEQGLEWIGRIDPEDGETKYAPKFQGKATMTADTSSNTAYLQLSSLTSEDTAVYYCASSAYYGRNYWGQGTTLTVSS
VL: QIVLTQSPAIMSASPGEKVTLTCSASSSLSSSYLYWYQQKPGSSPKLWIYSTSNLASGVPARFSGSGSGTSYSLTISSMEAEDAASYFCHQWSSYPYTFGGGTKLEIK
notes: murine hybridoma antibody; also called 49G12G5
- binding result [6]: no binding
- OD450 nm [7]: 3.2
- OD450 nm [8]: 3.8
- OD450 nm [9]: 0.64
- OD450 nm [10]: 3.79
- OD450 nm [11]: 0.14
- OD450 nm [12]: 0.13
- OD450 nm [13]: 0.08

Continued, values first:

- binding result [6]: no binding
- OD450 nm [7]: 2.44
- OD450 nm [8]: 3.69
- OD450 nm [9]: 0.46
- OD450 nm [10]: 3.68
- OD450 nm [11]: 0.15
- OD450 nm [12]: 0.09
- OD450 nm [13]: 0.08
B5: Murine anti-51G7 (antibody, V domains shown)
VH: B4 VH with L5Q, Y32F, M34I, G66D, M70I, T71I, A100S, R104N
VL: B4 VL with L29V, S32N, Y95F
notes: murine hybridoma antibody; also called 51G7C2

- binding result [6]: no binding
- OD450 nm [7]: 3.5
- OD450 nm [8]: 3.85
- OD450 nm [9]: 0.72
- OD450 nm [10]: 3.83
- OD450 nm [11]: 0.15
- OD450 nm [12]: 0.09
- OD450 nm [13]: 0.08
B6: Murine anti-46C4 (antibody, V domains shown)
VH: EVHLQQSVAELVRPGASVKLSCTASGFNIKNTYMHWVKQRPEQGLEWIGRIDPANGNTKYAPKFQGKATITADTSSNTAYLQLSSLTSEDTAIYYCASDFDYWGQGTTLTVSS
VL: DVLMTQTPLSLPVSLGDQVSISCRSSQSIVNSNGNTHLEWYLQKPGQSPKVLIYKVSKRFSGVPDRFSGSGSGTDFTLKISRVEAEDLGVYYCFQGSHVPYTFGGGTKLEIK
notes: murine hybridoma antibody; also called 46C4A6

- binding result [6]: no binding
- OD450 nm [7]: 1.58
- OD450 nm [8]: 3.63
- OD450 nm [9]: 0.24
- OD450 nm [10]: 3.64
- OD450 nm [11]: 0.09
- OD450 nm [12]: 0.08
- OD450 nm [13]: 0.08
B7: Murine anti-64B11 (antibody, V domains shown)
VH: EVQLQQSGAELVKPGASVKLSCTASGFNIKDYYMHWVKQRTEQGLEWIGRIDPEDGETKYAPKFQGKATITADTSSNTAYLQLSNLPSEDTAVYYCGCRTGGFAYWGQGTLVTVSA
VL: DILMTQSPSSMSVSLGDTVSITCHASQGINSNIGWLQQKPGKSFKALIYHGTNLEDGVPSRFSGSGSGADYSLTISSLESEDFADYYCVQYAQFPFTFGSGTELEIK
notes: murine hybridoma antibody; also called 64B11F2
